Patent publication US10076652B2, “Method for ultrasound-mediated delivery system to monitor molecular penetration” (CHANG GUNG UNIVERSITY, priority 2015, dated 2018)

Assay: Molecular penetration into the brain after focused ultrasound (FUS) induced BBB opening
Conditions: in vivo
Source text: First, there are three testing substances, and their molecular size spreading from 1 to nearly 150 kDa are employed in second procedure. Three substances are Gd-DTPA, Evans blue, and Bevacizumab.
FIGS. 10A and 10B are about that selected the UEI ranging of 0.65 and 1.25 for testing, and under testing the center frequency of only 0.4 MHz is employed. FIG. 10A illustrates the measured molecular penetration (molecule 1-3) of different exposure conditions (UEI set to 0, 0.65, and 1.25). FIG. 10B illustrates the measured molecular penetration (molecule 1-3) of different molecular ranges (UEI set to 0, 0.65, and 1.25). These measurement results will be compared with the final predict results.
The molecule 1 has the highest penetration because of its small molecular size (1 kDa; the predicted concentration range is 1.7 to 6.2 μM during UEI ranging of 0.65-1.25). […]
Integrating of the UEI and the UII by above uniform and calibrated method steps, in this embodiment, it is possible to examine the three molecular penetrations reflecting to the four imaging indexes with different UEIs. Another experiment is conducted, the three molecular penetrations was measured (shown in FIG. 10), and comparing to the quantified predict results of the UEI. The correlation of UEI is evaluated under the UII.

With Bevacizumab [molecule 3] as the compound, how does the “predicted concentration range (molecular penetration)” value read?
The value was 0.02 to 2.1 µM.

For `Cc1cc(-c2ccc(/N=N/c3ccc4c(S(=O)(=O)O)cc(S(=O)(=O)O)c(N)c4c3O)c(C)c2)ccc1/N=N/c1ccc2c(S(=O)(=O)O)cc(S(=O)(=O)O)c(N)c2c1O` [molecule 2, Evans blue], which “predicted concentration range (molecular penetration)” value is on record?
Its value is 0.7 to 3.1 µM.
